Test results published in patent publication US20200173986A1 (HUGEL, published 2020).
Residue numbers refer to the chain shown, from its start.

B1: B23 IgG (antibody, V domains shown)
VH: EVQLQQSGAELVRPGASVKLSCTASGINIKDYYMHWMKQRPEQDLEWIGWIDPGNGDAEYAPKFQGKATMTADTSSNTAYLQLSSLTSEDTAVYYCNEIAYWGQGTLVTVSA
VL: not shown
notes: also called B23 IgG1
B2: D2 IgG (antibody, V domains shown)
VH: DVKLQESGPGLVKPSQSLSLTCSVTGYSITSGYYWNWIRQFPGNKLEWMGYIRYDGSNNYNPSLKNRISITRDTSKNQFFLKLNSVTTEDTASYYCARDRDSSYYFDYWGQGTALTVSS
VL: DIVMTQSSSYLSVSLGGRVTITCKASDHINNWLAWYQQKPGNAPRLLISDTTSLETGVPSRFSGSGSGKDYTLSITSLQTEDVATYYCQQYWSAPPTFGGGTKLEIK
B3: C7 IgG (antibody, V domains shown)
VH: QVQLVETGGGLVQPKGSLKLSCAASGFTFNTNAMNWVRQAPGKGLEWVARIRSKSNNYATYYADSVKDRFTISRDDSQSLLYLQMNNLKTEDTAMYYCVYGRSYGGLSYWGQGTLVTVSA
VL: DIVMTQSPASLAVSLGQRATISCRASKSVSSSGYSYMHWYQQKPGQPPKLLIYLASNLESGVPARFSGSGSGTDFTLNIHPVEEEDAATYYCQHSRELPLTFGAGTKLELK
notes: also called C7 IgG2a
B4: C16 IgG (antibody, V domains shown)
VH: EVQLQQSGAELARPGASVQMSCKAFGYTFTNYTMHWVRQRPGQGLEWIGFINPSSDYTNYNQKFKDKATLSADKSSSTAYMQLSSLTSEDSAVYYCARRIFYNGRTYAAMDYWGQGTSVTVSS
VL: B3 VL
notes: also called C16 IgG1
B5: C4 IgG (antibody, V domains shown)
VH: DVKLQESGPGLVKPSQSLSLTCTVTGYSITSDYAWNWIRQFPGNKLEWMGYISYSVGTRYNPSLKSRISITRDTSKNQFFLLLKSVTNEDTATYFCARKGEYGFAYWGQGTLVTVSA
VL: B3 VL with S31T
B6: C24 IgG (antibody, V domains shown)
VH: EVKLVESGGGLVQPKGSLKLSCAASGYTFNTYAMNWVRQAPGKGLEWVARIRSKSNNYTTYYADSVKDRFTISRDDSQSMLYLQINNLKTEDTAMYYCVGQILYYYVGSPAWFAYWGQGTLVTVSA
VL: B3 VL with S31T, Y53F, L100W, A104G, L110I
B7: C14 IgG (antibody, V domains shown)
VH: B3 VH with Q1E, Q3K, T7S, N56D, Q78P, L80M, S108G
VL: B3 VL with M4L, S31T, M37V
B8: D6 IgG (antibody, V domains shown)
VH: EVQLQQSGPELVKPGASVKISCKASGYTFTDYNMHWVKQSHGKSLEWIGYIYPYNGDTGYNQKFKSKATLTVDNSSSTAYMELRSLTSEDSAVYYCVRSGDYWGQGTTLTVSS
VL: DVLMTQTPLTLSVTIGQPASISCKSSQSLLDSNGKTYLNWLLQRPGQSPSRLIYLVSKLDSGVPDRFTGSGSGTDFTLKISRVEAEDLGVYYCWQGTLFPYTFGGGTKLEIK
B9: B4 IgG (antibody, V domains shown)
VH: EVKLVESGGGLVKPGGSLKLSCAASGFTFSNYGMSWVRQTPEKRLEWVATISSGGSYTYYPDSVKGRFTISRDNAKNTLYLQMSSLRSEDTAMYYCARHEGGGNPYFDYWGQGTTLTVSS
VL: DVLMTQTPLSLPVSLGDQASISCRSSQSLVHSNGNTYLHWYLQKPGQSPKLLIYKVSNRFSGVPDRFSGSGSGTDFTLKISRVEAEDLGVYFCSQNTLVPWTFGGGTKLEIK
notes: also called B4 IgG1; clone 4
B10: D3 IgG (antibody, V domains shown)
VH: EVQLEESGGGLVQPGGSLKLSCAASGFTFSNYGMSWVRQTPDKRLELVATINSNGGTTYYPDSVKGRFTISRDNAKNTLYLQMSSLKSEDSAMYYCARDRDAMDYWGQGTSVTVSS
VL: B9 VL with L29I, H31N, N33H, H39E, F92Y, S94F, N96G, T97S, L98H

Tests used:
[1] = biological target: T1, recombinant GST-SNAP25197 (UniProt P60880 1-197); assay: direct ELISA; signal on GST-SNAP25197 against GST-SNAP25FL as reference
T1 construct: not shown: glutathione S-transferase (GST) tag

recombinant GST-SNAP25FL = biological target: T2, recombinant GST-SNAP25FL (UniProt P60880 1-206); assay: BLI (Octet Red96); IgG on AMC biosensor, GST-SNAP25FL as analyte; KD from a tentative koff limit
T2 construct: also called GST-SANP25FL; not shown: glutathione S-transferase (GST) tag

[2] = biological target: T1, recombinant GST-SNAP25197; assay: BLI (Octet Red96); IgG on AMC biosensor, GST-SNAP25197 as analyte; koff is the instrument's lowest limit, tentatively given
[3] = biological target: T1, recombinant GST-SNAP25197; assay: BLI (Octet Red96); anti-GST biosensor dipped in 125 nM GST-SNAP25197, IgG as analyte
[4] = biological target: T1, recombinant GST-SNAP25197; assay: BLI (Octet Red96); anti-GST biosensor dipped in 250 nM GST-SNAP25197, IgG as analyte

T1 sequence (P60880 1-197): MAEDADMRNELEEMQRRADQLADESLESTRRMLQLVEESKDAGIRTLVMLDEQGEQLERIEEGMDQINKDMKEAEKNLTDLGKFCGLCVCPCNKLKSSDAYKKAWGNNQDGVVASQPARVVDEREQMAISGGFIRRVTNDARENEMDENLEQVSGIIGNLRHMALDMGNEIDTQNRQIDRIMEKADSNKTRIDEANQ
T2 sequence (P60880 whole entry): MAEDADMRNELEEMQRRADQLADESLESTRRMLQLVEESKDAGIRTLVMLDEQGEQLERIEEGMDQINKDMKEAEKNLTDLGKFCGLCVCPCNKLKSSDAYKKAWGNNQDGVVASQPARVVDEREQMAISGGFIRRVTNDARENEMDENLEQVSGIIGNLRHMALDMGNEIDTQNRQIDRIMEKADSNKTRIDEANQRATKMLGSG

Binder	Ratio197/206 (A450 with SNAP25197 to A450 with SNAP25FL) [1]	koff [2]	further results
B1	0.92 ratio		Kd (recombinant GST-SNAP25FL): ≤ 0.00104 nM
B2	0.03 ratio		
B3	1040 ratio	≤ 1e-07 s⁻¹	Kd [3]: 19.3 nM; koff [3]: 0.00494 s⁻¹; Kd [4]: 4.41 nM; koff [4]: 0.00122 s⁻¹
B4	996 ratio		
B5	919 ratio	≤ 1e-07 s⁻¹	
B6	973 ratio	≤ 1e-07 s⁻¹	
B7	953 ratio		
B8	0.02 ratio		
B9	0.83 ratio		Kd (recombinant GST-SNAP25FL): ≤ 0.00105 nM
B10	12.9 ratio		
